Literature values as cited in PMC7561359.

Biological target: IFNAR1 (Homo sapiens) (UniProt P17181)
Chain of UniProt P17181 (P17181 28-436): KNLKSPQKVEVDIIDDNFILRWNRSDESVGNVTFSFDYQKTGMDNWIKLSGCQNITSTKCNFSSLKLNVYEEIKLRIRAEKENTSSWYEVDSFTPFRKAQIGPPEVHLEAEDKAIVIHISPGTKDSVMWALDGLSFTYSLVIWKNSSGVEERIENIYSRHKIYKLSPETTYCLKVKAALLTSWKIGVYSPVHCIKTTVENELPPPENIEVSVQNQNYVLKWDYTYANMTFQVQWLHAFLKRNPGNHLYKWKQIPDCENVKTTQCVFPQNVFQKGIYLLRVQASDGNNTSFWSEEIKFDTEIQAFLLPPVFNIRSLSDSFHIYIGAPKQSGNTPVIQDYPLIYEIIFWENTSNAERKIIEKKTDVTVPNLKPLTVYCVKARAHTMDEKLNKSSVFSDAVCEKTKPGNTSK

Kd: 100 nM
Substance: IFNβ (from UniProt P01574)
